Data: PMC8229645

Key:
[1] = target: Human astrovirus 6 capsid spike (Spike 6) (human astrovirus serotype 6); test: SEC
[2] = target: Human astrovirus 2 capsid spike (Spike 2) (human astrovirus serotype 2); test: SEC

Row | Substance | stoichiometry N [1] | stoichiometry N [2]
1 | Human astrovirus 6 capsid spike (Spike 6) (domain or fragment) | 2 | 
2 | Human astrovirus 2 capsid spike (Spike 2) (domain or fragment) |  | 2
